Experimental data as given in patent publication US20130302313A1.

Molecular target: coxsackievirus-adenovirus receptor (CAR) (UniProt P78310)
Experiment: cell-based or functional assay

Chain of UniProt P78310 (P78310 20-365 limits assumed): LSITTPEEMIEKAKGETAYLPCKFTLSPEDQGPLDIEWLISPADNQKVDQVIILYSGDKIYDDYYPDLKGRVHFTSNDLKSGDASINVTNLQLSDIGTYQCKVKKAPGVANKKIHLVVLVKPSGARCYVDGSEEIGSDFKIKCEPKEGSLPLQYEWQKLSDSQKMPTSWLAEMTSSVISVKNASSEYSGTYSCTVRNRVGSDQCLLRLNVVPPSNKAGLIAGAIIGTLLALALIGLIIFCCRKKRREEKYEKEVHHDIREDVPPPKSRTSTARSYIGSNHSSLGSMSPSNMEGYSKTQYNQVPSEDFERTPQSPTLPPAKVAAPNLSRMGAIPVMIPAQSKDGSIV

free soluble Ad5 fiber molecules (from UniProt P11818 1-581) (ligand)
GFP expression (transduction) of A549 cells by Ad5(GFP) at 500 evg/cell in the presence of soluble Ad5 fiber, relative to absence of soluble fiber (set to 100%): 20%
Transduction efficacy of A549 cells by Ad5PTD(GFP) at 500 evg/cell in the presence of soluble Ad5 fiber, relative to absence of soluble fiber (set to 100%): 80%
